Substitutions are numbered along the chain they refer to.

T1: EC3 deletion mutant of human CDH6 (human, UniProt P55285 54-790)
T1 construct: In p3×FLAG-CMV-9; also called EC3-deleted hCDH6
T1 sequence: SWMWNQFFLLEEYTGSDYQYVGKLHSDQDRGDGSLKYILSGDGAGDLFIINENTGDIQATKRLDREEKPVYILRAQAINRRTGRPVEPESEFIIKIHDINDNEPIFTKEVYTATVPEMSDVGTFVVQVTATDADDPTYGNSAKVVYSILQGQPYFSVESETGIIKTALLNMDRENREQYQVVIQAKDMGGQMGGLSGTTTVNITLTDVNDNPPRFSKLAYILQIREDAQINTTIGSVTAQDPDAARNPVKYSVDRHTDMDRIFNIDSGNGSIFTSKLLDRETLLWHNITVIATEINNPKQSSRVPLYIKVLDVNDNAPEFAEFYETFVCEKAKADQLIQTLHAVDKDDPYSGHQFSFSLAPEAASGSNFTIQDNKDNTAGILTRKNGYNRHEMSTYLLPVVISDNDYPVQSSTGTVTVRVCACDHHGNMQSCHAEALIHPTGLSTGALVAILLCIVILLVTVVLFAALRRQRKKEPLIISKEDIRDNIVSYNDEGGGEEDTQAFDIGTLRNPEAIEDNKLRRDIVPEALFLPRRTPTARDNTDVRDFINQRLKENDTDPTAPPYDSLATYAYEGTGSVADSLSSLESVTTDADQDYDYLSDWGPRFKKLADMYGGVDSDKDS

T2: rat CDH6 (on cells) (rat, UniProt P55280 54-789)
T2 construct: also called rCDH6
T2 sequence: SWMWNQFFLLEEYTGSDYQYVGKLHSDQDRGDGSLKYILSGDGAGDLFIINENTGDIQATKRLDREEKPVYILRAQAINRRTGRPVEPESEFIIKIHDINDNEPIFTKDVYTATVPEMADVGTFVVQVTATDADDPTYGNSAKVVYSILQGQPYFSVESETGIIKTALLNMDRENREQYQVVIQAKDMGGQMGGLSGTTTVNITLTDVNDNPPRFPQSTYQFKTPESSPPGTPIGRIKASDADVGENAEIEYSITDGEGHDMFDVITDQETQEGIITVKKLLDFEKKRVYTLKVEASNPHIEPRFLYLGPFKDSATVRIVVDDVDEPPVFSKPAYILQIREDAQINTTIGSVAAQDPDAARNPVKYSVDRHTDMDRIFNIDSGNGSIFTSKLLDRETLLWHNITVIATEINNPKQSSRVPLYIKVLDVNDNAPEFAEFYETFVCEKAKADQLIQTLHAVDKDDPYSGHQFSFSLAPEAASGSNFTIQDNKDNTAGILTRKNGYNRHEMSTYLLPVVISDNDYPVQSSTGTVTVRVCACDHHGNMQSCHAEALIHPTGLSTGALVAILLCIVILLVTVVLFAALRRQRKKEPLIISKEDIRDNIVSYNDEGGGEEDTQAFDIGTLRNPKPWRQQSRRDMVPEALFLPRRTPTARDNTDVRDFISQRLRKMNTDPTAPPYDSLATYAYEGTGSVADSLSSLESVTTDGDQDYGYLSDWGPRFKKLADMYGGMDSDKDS

B1: H02L02 antibody (antibody, human IgG1, kappa, V domains shown)
VH: EVQLVQSGAEVKKPGASVKVSCKASGYTFTRNFMHWVRQAPGQGLEWMGWIYPGDGETEYNQKFQGRVTITADRSTSTAYMELSSLRSEDTAVYFCARGVYGGFAGGYFDFWGQGTLVTVSS
VL: DIQMTQSPSSLSASVGDRVTITCKASQNIYKNLAWYQQKPGKAPKLLIYDANTLQTGVPSRFSGSGSGSDFTLTISSLQPEDFATYFCQQYYSGWAFGQGTKVEIKR
notes: Humanized IgG1/kappa (hH02 + hL02); also called humanized hG019 antibody H02L02
B2: H01L02 antibody (antibody, human IgG1, kappa, V domains shown)
VH: B1 VH with N61A, R74T, F95Y
VL: B1 VL
notes: Humanized IgG1/kappa (hH01 + hL02); also called humanized hG019 antibody H01L02; labeled H01L02
B3: H04L02 antibody (antibody, human IgG1, kappa, V domains shown)
VH: B1 VH with E1Q, V37I, N61A, I70L, F95Y
VL: B1 VL
notes: Humanized IgG1/kappa (hH04 + hL02); also called humanized hG019 antibody H04L02
B4: H02L03 antibody (antibody, human IgG1, kappa, V domains shown)
VH: B1 VH
VL: B1 VL with P40L, K42E, A43G, S69T, F87Y
notes: Humanized IgG1/kappa (hH02 + hL03); also called humanized hG019 antibody H02L03

The first assay has as its target T1, EC3 deletion mutant of human CDH6. As to the kind of experiment: flow cytometry; 293α cells transfected with EC3-deleted hCDH6 (open) vs untransfected control cells (shaded); APC anti-human IgG. The protocol:
The cells were cultured overnight under conditions of 37° C. and 5% CO₂, and thereafter, a cell suspension was prepared. […] Thereafter, the cells were suspended by the addition of each of the 4 humanized hG019 antibodies (clone Nos: H01L02, H02L02, H02L03 and H04L02), which had been prepared in Example 5)-5-3, or the anti-CDH6 antibody NOV0712, which had been prepared in Reference Example 1, or human IgG1 (Calbiochem) as a negative control. The cells were left standing at 4° C. for 1 hour. The cells were washed twice with PBS supplemented with 5% FBS, and then suspended by the addition of APC-anti-human IgG goat F(ab′)2 (Jackson ImmunoResearch Laboratories, Inc.) that had been 500-fold diluted with PBS supplemented with 5% FBS. The cells were left standing at 4° C. for 1 hour. The cells were washed twice with PBS supplemented with 5% FBS, followed by detection using a flow cytometer (Canto II; BD Biosciences). The data was analyzed using FlowJo (Tree Star, Inc.). In the histograms of FIGS. 7-1 to 7-6, the abscissa depicts APC fluorescence intensity indicating the amount of the antibody bound, and the ordinate depicts cell count. […] Fluorescence intensity is enhanced when the antibody binds to full-length hCDH6 or each EC domain deletion mutant on cell surface. The human IgG1 control binds to none of the transfected cells.
Background: In flow cytometry, cells or beads pass a laser one at a time.
B1: the binding result was “no binding (tested: not given (single concentration))”.
Turning to B2, the binding result is given as “no binding (tested: not given (single concentration))”.
Take B3: the binding result is “no binding (tested: not given (single concentration))”.
Take B4: the binding result is given as “no binding (tested: not given (single concentration))”.

For a further assay, the target named is T2, rat CDH6 (on cells). As to the kind of experiment: flow cytometry, MFI vs antibody concentration; 293α cells transiently transfected with rCDH6; PE anti-human IgG Fc. The protocol: The cells were cultured overnight under conditions of 37° C. and 5% CO₂, and thereafter, a cell suspension was prepared. […] Thereafter, the cells were suspended by the addition of each of the 4 humanized hG019 antibodies (clone Nos: H01L02, H02L02, H02L03 and H04L02), which had been prepared in Example 5)-5-3, or human IgG1 control (Calbiochem). The cells were left standing at 4° C. for 1 hour. The cells were washed twice with PBS supplemented with 5% FBS, and then suspended by the addition of anti-human IgG, Fc(gamma) PE goat F(ab′) (Jackson ImmunoResearch Laboratories, Inc.) that had been 500-fold diluted with PBS supplemented with 5% FBS. The cells were left standing at 4° C. for 1 hour. The cells were washed twice with PBS supplemented with 5% FBS, followed by detection using a flow cytometer (Canto II; BD Biosciences). The data was analyzed using FlowJo (Tree Star, Inc.). In FIGS. 6-1 and 6-2, the abscissa depicts antibody concentration, and the ordinate depicts the amount of the antibody bound based on mean fluorescence intensity. As shown in FIGS. 6-1 and 6-2, the human IgG1 control as a negative control binds to none of the CDH6-transfected cells. The 4 humanized hG019 antibodies (clone Nos: H01L02, H02L02, H02L03 and H04L02) bind to human CDH6 and cynomolgus monkey CDH6, but bind to neither mouse nor rat CDH6. None of the antibodies bind to the cells transfected with the empty vector pcDNA3.1 as a negative control.
In the case of B1, the binding result is reported as “no binding (tested: about 4 nM)”.
Regarding B2, the binding result is “no binding (tested: about 4 nM)”.
With B3, the binding result is “no binding (tested: about 4 nM)”.
As for B4, the binding result is “no binding (tested: about 4 nM)”.

Source of the values: patent US20200171163A1 (Daiichi Sankyo, published 2020).
